Experiment: label from the status in PepcDB records

Sequence	protein production
MAVLNLFHIFATTVDSTAVEKNLLIMKFYNREKEIAELKRVQELAFGQNSRMIVVTGRRRIGKTSLIKQALKGTPTVYFFIGRKAESILVADFIKIVRETLSIFIPDGISNFTTLIQYLFEIGKTRSFNIVIDEFQEFYNIRPDVFSDMQNLWDEYRQETKINLVISGSVYSLMQKIFTDHGEPLFGRADNILCLRPFNTKVLKQIMEDFAPGYSNDDLLALYTLTGGIPKYVELFCDNQALSVDRIYDFVFSENSLFIDEGRNLLITEFGKNYGIYFSILLEIANGHYTQGEIESALGGISIGGHLSKLENVYNLITRERPIFAKPGTKKNVRYIIGDNFLNFWFKYIERNRSYIELQNFEDLRQLAKADYQTYSGRVLEKYFKQKLAEEGGFKEIGSWWETKSSANKERLNSFEIDIVALKSSGKKALIAEVKRMPENNYVHSTFMEKVEHLKHKEMAKYDIETRVLGLEDM	failed
MSEEQDKQRNTRKKENNRLLTKAAIIGVVAGILGGGIAYGGLSAANLNSNTSSSTASSSSSNTGENGSVTTSSSGTTKVNKSKTTSGTMTSAYKKVQNAVVSVLNYKYTSSSSSSSDIYSMFGYGDSDSSDSSSSKKSLTLYSEGSGVIYTTANGKGYIVTNNHVISGAAKVKVILASGKTIAAKVVGKDSTSDLAVLSIDSKYVTQTASFGDSRSLLSGQTVIAIGSPEGSEYASTVTQGIISSPSRTITYNSNQMTVIQTDAAINSGNSGGPLVNSDGQVIGINSMKLSSSSSGDSVEGMGFAIPSNEVVTIVNQLVKKGKITRPQLGIKVAAIADLNSYYKKQLGISTSLKKGLYVASVTSGSAAASAGIKKGDVITAADGKTVNDVATLHSILYSHNVGDKVKITVNRNGKTMTFTVTLQASN	failed
MQLQLICEDPSQQSHLDELAARWQLSHTDESDFALVLTAERLELRKVDEPKLGAIFVDLIGGAVGHRRKFGGGKGQAIAKAAGLNKGATPTVLDGTAGLGRDAFVLASLGCKVQMVERHPVVAALLDDGLARAKQDPEIGTWVSERMSLIHASSHDALDQLAQDREFVKPDVVYLDPMYPHPENKKKSALVKKEMRVFQSLVGADLDADGLLEPALALATKRVVVKRPDYANWLNEQKPSMAIETKKNRFDVYVKASMALEHHHHHH	not failed
VEVESFLVHPGDLLQLRCRLRDDVQSINWLRDGVQLAESNRTRITGEEVEVQDSVPADSGLYACVTSSPSGSDTTYFSVNVSDALP	not failed
VLWISSSPVLQRFDKPLLQYISKDVNVAQWEYRHHRDEGSSIDEAVDLLAEFMGQCPYPVNLAGHAAGGAIALSFARRYPKKVRSLSLLAVASQPANTWHAHYYLQRQLFTISREQILANTVRNLFGEQPSHTTKKLVAVLDRDLEQSPLLHSLFKLVHLPEGGVNMPLMICGSKNDPIVSSTTLQDWSNCLKPEDHLWECPKGHHFFHYFYPQTVGDQLLNFWQ	failed
MTLLRVGGVPEPFNEIFMQAQEGALPSTKLQVEFLGVAGGSGAALEMLAKCELDVAVTLTESAVARTKAAASGLAVHSVYVASPLAWGVAVSSKKTDWTDLNSLDAAVLRGESIRAGFSRRGSGSHLLLSVFASDRGWISTGIQNDILKSFECGSFDGLIQAAVAGDIDMFLWETCFTKECAATRQGLIRLVGEYAPSWPAFVLVCRDDAHVRAAVSELKREIEPLQRKFCTGEGLDILQNKYGFSLESAKLWLSRLQFAEPDEALSAEQWRSVERALELTAGSRSSSR	not failed
MRWLLLLLLLAACRAQGLPEPYATLERGGKEALRQVALEAQGYAGLLAGWLLVGEEDLPLAERAEYAWRYALFLEEVRAFEPGWEAEAAWRVAAPLLEAAEDARAFSAWARLLPEEEAVQALLRLGQGERLWEALFRGRAYEPLLKALPEGERPDLRAQALYRLGRYEEALPHYRAWAEADPRGYLGLGYALWRLGRREEALQAFARYDHPESRLAQGRLLEGMGRVEEALARYLASTPEGLWRATALLERLGRKEEALGVYLRLAQGESPYADDAALRAYLLAGELGNGEARQEAYARLEGGLGLLVGKRPSPPPQALEAPPAPLTPLVEALVRAGKAAWARGEVRYALWRRPKDWPALVPLLYRLGAYREGIRAAWPTALAYPRAYREWVEGYAGKEGLDPDLLFALLHVESRFDPKAVSPTGALGLAQFLRSTWADVARMLGEPPADPFDPESAIRYAARYLRWLMERCAAFSGVERLACAVTAYNGGIGYTLRGIAREGGLYAFLRFQERDEPREYLAKVLSAYAAYKAIP	failed
ESYTIPHPSYDQPDSYQEREIVIGNSTYPLPATLTVPKHQRGEKVPVVVLVHGAGIHDRDATYLGTKILRDLAVGLSSNGIAVLRYEKRTLEHALKMSAEPVTLDRDTTDDAIYAAKSAAQQEGIDPNNIFILGHSQGAGTMPRILSKAPSSLVRGSILLAPPAHPLTDIAIDQYQYLGKPQEEIDELKRQAAFIQDPTFNPDHPPAGYNFGSPHFMYDVSRWRPVEEAKSRKEPLLILQGARDYQVTVKNEYTKWQEGLANRRNVQFKKYPKLNHFFTEGDGELSLPSEYEIPANVPEYVIQDIITWVNETK	failed
MIYQPDENRYHTMEYRRCGRSGVKLPAISLGLWHNFGDTTRVENSRALLQRAFDLGITHFDLANNYGPPPGSAECNFGRILQEDFLPWRDELIISTKAGYTMWDGPYGDWGSRKYLIASLDQSLKRMGLEYVDIFYHHRPDPETPLKETMKALDHLVRHGKALYVGISNYPADLARQAIDILEDLGTPCLIHQPKYSLFERWVEDGLLALLQEKGVGSIAFSPLAGGQLTDRYLNGIPEDSRAASGSRFLKPEQITADKLEKVRRLNELAARRGQKLSQMALAWVLRNDNVTSVLIGASKPSQIEDAVGMLANRRFSAAECAEIDAILEGRF	failed
MSQQNTELEGIGKLRSGSLFMILAVLLAAIGILVIISAGMLGGMFSAASGNVSGVIASGIGLLVGIAIVILIGAIIGLIGILRIRSGFGILKSLGRDVGIGEIGTTLYLVGLIIIIIGALLTIVLIGFPILILGEIIALIGGILIGIGFYKVGEIYNEGLVKIGGILIVIPIDLINFVGFILAYVGLGKVRPLPTVAQQPLVPQVYQVGQGTIRNNGYAYITLYSSTPASIISAKIEGANIMSSAINPTVLQIGNNEVTIFFGNVQSLAPNTTYIITLTINIGGNIINISTTAVYQP	failed
AIAAADISESSGADCKGDPRNSAKLDADYPLRVLYCGVCSLPTEYCEYMPDVAKCRQWLEKNFPNEFAKLTVENSPKQEAGISEGQGTAGEEEEKKKQKRGGRGQIKQKKKTVPQKVTIAKIPRAKKKYVTRVCGLATFEIDLKEAQRFFAQKFSCGASVTGEDEIIIQGDFTDDIIDVIQEKWPEVDDDSIEDLGEVKK	failed
MFRRLILRQAAAVAAESKIACHHTVHGFEQRRGLHSRNEKAMEYVAKGWSAIKEVERVIDYCELNDRRLIPLLRGAKENFELALEADNLNTHARYWLSKLHLKYHVPGACKAVGAALLVEAADMGNADAQYELGCRLRVENDHVQSDQQAFHYIENAVDQLHPGALYLLGIVYLTGDCVKQDVDSAIWCFHRASEKGHAGAAIAYGSLLLRGVQVPESLTKLNVVGVSPPKRARKNLENPEMNPLEMAKEQFQIAARAGCDLGLKWLQRVEQEEKLLMREQDNECAYV	failed
MTVAVIGAHGGIGRRLLPRLNEAGHDPIGVVRSEDQFAAIRDRGAEPRLGDLEGEVASALDGADAVVFTAGAGGSTGWDKTILVDLWGAERAVHACEEKEIDRFVMVSSRGAGDPESRQGPIKPYIVAKHVADRTLQRSSLDETILRPTRLTDAEGTGRVAAYVDTDPDAGDPIPRADVAQAVVQCLADDNTVGHAITLYGGDTPIGEALRPSGLEHHHHHH	failed
ADLGRKITSALRSLSNATIINEEVLNAMLKEVCTALLEADVNIKLVKQLRENVKSAIDLEEMASGLNKRKMIQHAVFKELVKVKVY	not failed
MPMSQSTFTILLGGELSLTERLRDAIEDSRFIAADGGMRHAAALGITPELWVGDFDSTPADLADAFPDVPKQPYPAAKAATDGEIAVAEAIARGARRLILAGALGGERSDHALQHLLSAVSLAEEGFDLLLTSGKEEAVPLVAGTIELDLPKGSLFSVPGFSELRGLAIENARYPLADFHLPFGSSRTISNVAEGKVRFSLRSGRAIVLARPYDLSGV	failed
GPHQRLEKLDSLLSDYDILSLSNIQQHSVRKRDLQTSTHVETLLTFSALKRHFKLYLTSSTERFSQNFKVVVVDGKNESEYTVKWQDFFTGHVVGEPDSRVLAHIRDDDVIIRINTDGAEYNIEPLWRFVNDTKDKRMLVYKSEDIKNVSRLQSPKVCGYLKVDNEELLPKGLVDREPPEGKT	not failed
MRLAGVGKSCLFAGRCAGIRPRRRLRWVLHFTATVPLNSMSSRRAFLRQCGLALAAAPALSSLPPWLSSADGFTSLRGGIGTFTQRGGTIGWLATDDGIAVVDTQSPQSAPDCWNGLRERSDSPLAMVINTHHHGDHVGGNGVFARHTDRLVAHANVPELMRAGAEDGAADEKTYPTETFQDTWSEPLGDETITLRYRGPAHTGGDAIVVFENANIVHVGDLVFNRAYPFIDVGGGADSQGWIDSLETIHGALDDDTIVIHGHGNPDFGVTGGREDLLVMRDFLSALNEYVTQQRQAGASLDEMKQTKVLDGFEAFNFDWALSLADCIEAVYREQTAG	failed
MKELSKSDRTRQFIIESTAPVFNVKGLAGTSLTDLTEATNLTKGSIYGNFENKEAVAIAAFDYNWGHVKSVLTAKVQACNTYKEMLLVYSSMYNDADGSLFPVGGCPLLNTTIEADDTHDALRKKAGEAILSWKKNLVTIIKKGIQAKEFRPDTDVTKIAFSMIALVEGAILIHRATKNRAYSDYVFESLEDLIAGIEVKKK	not failed
MEPKDTTTNDAFKGFTNTACPFLPCHKGVKREFNCLFCYCPLIAYECPGPYQVYTDKNGLTRKDCTNCTLPHDGYLASWNFIQKWLERPVIWSGAAQTTPPTRRPGRAPGDGDEELEHHHHHH	not failed
MIDTSIFQDKTAVYYTLGCKLNFSETSTIGKVLREAGVRTVRKGEKADICVVNTCSVTEVADKKCRQAIHRLVKQHPGAFVVVTGCYAQLKPDAVAKIEGVDVVLGAEQKKDLLQYLGDLRKHESGEAHTSALKDIRSFAPSCSRGDRTRFFLKVQDGCDYYCSYCTIPFARGRSRNGSIASLVEQARQAAAEGGKEIVLTGVNIGDFGKSTGETFFDLVKALDDVECIERYRISSIEPNLLTDEIIEFVSRSKRFMPHFHIPLQSGSDEVLKLMRRRYDTALFASKVKRIKEVMPDAFIGVDVIVGTRGETEEYFEQAYRFIQSLDVTQLHVFSYSERPGTQALKIEHVVSSEEKHRRSRLLLDLSDEKTRAFYARHIGQTMPVLLERSKPGTPMHGFTPNYIRVEVPHDDALDNQVIPVRMGDFNEEGTALSGAFGDK	failed
MLTLIKRTVLAAGLIGTTLGAAAQPPRAYPLKDFFRNPERGYFRLADDGKTLGFMQPVSIDGQPPRMNIYVQALADGVPAGEPRKLTSETARDISNFFWKGDDTVLYQKDFGGDENFHVLAVNARTGQVADLTPYEGVRASIEDDLPDDPDHVLISHNRRDPQVFDVYRVNVRTGAAELVAQNPGNVVGWQTDHAGKVRAAITSDGLNTTLLYRDDEAAPFRPLITTDYRVSVSPAFFTFDDRKLYALSNRGRDKLALVVIDPATPDVEQPVFEPDEVDLDAAGYSRKRKVLTVASYQTDKPRHRFFDAETEALYARLARALPGYDFALQGWNRDEDTFIVAAYNDRTPGSRYLYDARRDSLHKLADINPAIPEADMAPVRPVSYQSRDGLTIHGYLTLPAGRAPRNLACIVNPHGGPWARDGWGYNPEVQFLANRGFCVLQMNFRGSTGYGRKFWEAGFGQWGLKMQDDITDGVQWLIDQGIADPRRIGIYGGSYGGYATLAGVAFTPDLYAAAVDYVGVSNLFTFMNTIPPYWKPLLAKMQDMVGDPVRDKARLEATSPALHVDRIKTPLFIAQGAKDPRVNKAESDQVVQALRQRGVEVEYMVKDNEGHGFHNDENKFEFYAAMEKFFTEHLKP	failed

— a protein production outcome set (Wang et al. 2014)
